{
  "source": "paper PMC9163516",
  "key": {"TβRI ectodomain [1]": {"molecular_target": "TβRI ectodomain (UniProt P36897)", "assay": "ITC; TGF-β3(TβRII)2 complex titrated into TβRI; 25 mM Hepes, 50 mM NaCl, 0.05% NaN3, pH 7.5, 30 °C"}, "[2]": {"molecular_target": "biotinylated avi-tagged TβRII (UniProt P37173)"}, "TβRI ectodomain [3]": {"molecular_target": "TβRI ectodomain (UniProt P36897)", "assay": "ITC; TGM construct in the syringe (58-150 µM), 7.5 µM TβRI in the cell; 25 mM Hepes, 50 mM NaCl, 0.05% NaN3, pH 7.5, 25 °C; 1:1 model (Nitpic, Sedphat)"}, "TβRII ectodomain [4]": {"molecular_target": "TβRII ectodomain (UniProt P37173)", "assay": "ITC; TGM construct titrated into TβRII in the cell; 25 mM sodium phosphate, 50 mM NaCl, pH 6.0, 35 °C; 1:1 model"}, "[5]": {"molecular_target": "biotinylated avi-tagged TβRII (UniProt P37173)", "assay": "SPR; BIAcore X100; biotinylated avi-tagged TβRI or TβRII captured on neutravidin-coated CM-5 chip (results say streptavidin) at 50-150 RU; TGM constructs injected as 2-fold dilution series in 25 mM Hepes, pH 7.4, 150 mM NaCl, 0.005% P20, 100 μl/min; 1:1 kinetic fit of a single injection series"}, "[6]": {"molecular_target": "biotinylated avi-tagged TβRII (UniProt P37173)", "assay": "SPR; biotinylated avi-tagged TβRII captured at 50-150 RU on neutravidin-coated CM-5 chip; WT TGM-D3 or TGM-D3 variants injected in 25 mM Hepes, pH 7.4, 150 mM NaCl, 0.05% P20, 100 μl/min; 1:1 fit of duplicate or triplicate injection series"}, "[7]": {"molecular_target": "biotinylated avi-tagged TβRII (UniProt P37173)", "assay": "SPR; biotinylated avi-tagged TβRII captured at 50-150 RU on neutravidin-coated CM-5 chip; WT TGM-D3 or TGM-D3 variants injected in 25 mM Hepes, pH 7.4, 150 mM NaCl, 0.05% P20, 100 μl/min; 1:1 fit of duplicate or triplicate injection series", "remark": "listed apart in the source"}, "TβRII ectodomain [8]": {"molecular_target": "TβRII ectodomain (UniProt P37173)", "assay": "ITC; TGM construct in the syringe (300-320 µM), 15 µM TβRII in the cell; 25 mM sodium phosphate, 50 mM NaCl, pH 6.0, 35 °C; 1:1 model (Nitpic, Sedphat)"}, "[9]": {"molecular_target": "biotinylated avi-tagged TGM-D3 (Heligmosomoides polygyrus)", "assay": "SPR; biotinylated avi-tagged TGM-D3 captured at 50-150 RU on neutravidin-coated CM-5 chip; TβRII variants injected in 25 mM Hepes, pH 7.4, 150 mM NaCl, 0.05% P20, 100 μl/min; 1:1 fit of duplicate or triplicate injection series"}, "TβRI ectodomain [10]": {"molecular_target": "TβRI ectodomain (UniProt P36897)", "assay": "ITC; TGM construct titrated into TβRI in the cell; 25 mM Hepes, 50 mM NaCl, 0.05% NaN3, pH 7.5, 25 °C; 1:1 model"}, "[11]": {"molecular_target": "biotinylated avi-tagged TβRI (UniProt P36897)", "assay": "SPR; BIAcore X100; biotinylated avi-tagged TβRI or TβRII captured on neutravidin-coated CM-5 chip (results say streptavidin) at 50-150 RU; TGM constructs injected as 2-fold dilution series in 25 mM Hepes, pH 7.4, 150 mM NaCl, 0.005% P20, 100 μl/min; 1:1 kinetic fit of a single injection series"}, "TβRII ectodomain [12]": {"molecular_target": "TβRII ectodomain (UniProt P37173)", "assay": "ITC; competition: 150 μM mmTGF-β27M injected into 15 μM TβRII with 0, 6.0 or 12.0 μM TGM-D3; 25 mM sodium phosphate, 50 mM NaCl, pH 6.0, 35 °C; global fit of the three datasets to a 1:1 model with competition"}},
  "note": "Read-outs that look alike come from different tables or passages of the source.",
  "data": [
    {"substance": "TGF-β3(TβRII)2 binary complex (from UniProt P37173 23-166)", "values": [
      {"measurement": "Kd", "setting": "TβRI ectodomain [1]", "result": 61, "unit": "nM"},
      {"measurement": "dH", "setting": "TβRI ectodomain [1]", "result": -4.2, "unit": "kcal/mol"}
    ]},
    {"substance": "TGM D13 (TGM D1-D3), wild type (domain or fragment)", "values": [
      {"measurement": "EC50 of signaling, MFB-F11 TGF-β reporter bioassay", "setting": "[2]", "result": 3.9, "unit": "ng/mL"}
    ]},
    {"substance": "TGM D13 I238A (domain or fragment)", "values": [
      {"measurement": "EC50 of signaling, MFB-F11 TGF-β reporter bioassay", "setting": "[2]", "result": 9.7, "unit": "ng/mL"}
    ]},
    {"substance": "TGM D13 I256A (domain or fragment)", "values": [
      {"measurement": "EC50 of signaling, MFB-F11 TGF-β reporter bioassay", "setting": "[2]", "result": 4.5, "unit": "ng/mL"}
    ]},
    {"substance": "TGM D13 Y252A (domain or fragment)", "values": [
      {"measurement": "EC50 of signaling, MFB-F11 TGF-β reporter bioassay", "setting": "[2]", "result": 7, "unit": "ng/mL"}
    ]},
    {"substance": "TGM-D2 (domain or fragment)", "values": [
      {"measurement": "Kd", "setting": "TβRI ectodomain [3]", "result": 1500, "unit": "nM"},
      {"measurement": "stoichiometry N", "setting": "TβRI ectodomain [3]", "result": 0.54}
    ]},
    {"substance": "TGM-D3 (domain or fragment)", "values": [
      {"measurement": "stoichiometry N", "setting": "TβRII ectodomain [4]", "result": 1},
      {"measurement": "Kd", "setting": "[5]", "result": 910, "unit": "nM"},
      {"measurement": "koff", "setting": "[5]", "result": 0.6, "unit": "s⁻¹"},
      {"measurement": "kon", "setting": "[5]", "result": 600000, "unit": "M⁻¹ s⁻¹"}
    ]},
    {"substance": "TGM-D3 F235A (domain or fragment)", "values": [
      {"measurement": "fold increase of KD against WT", "setting": "[6]", "result": 4, "unit": "fold"}
    ]},
    {"substance": "TGM-D3 I238A (domain or fragment)", "values": [
      {"measurement": "fold increase of KD against WT", "setting": "[6]", "result": "> 20", "unit": "fold"}
    ]},
    {"substance": "TGM-D3 K254A (domain or fragment)", "values": [
      {"measurement": "fold increase of KD against WT", "setting": "[6]", "result": "> 20", "unit": "fold"},
      {"measurement": "fold increase of KD against WT", "setting": "[7]", "result": "> 30", "unit": "fold"}
    ]},
    {"substance": "TGM-D3 R198A (domain or fragment)", "values": [
      {"measurement": "fold increase of KD against WT", "setting": "[6]", "result": "> 20", "unit": "fold"},
      {"measurement": "fold increase of KD against WT", "setting": "[7]", "result": "> 30", "unit": "fold"}
    ]},
    {"substance": "TGM-D3 V236A (domain or fragment)", "values": [
      {"measurement": "fold increase of KD against WT", "setting": "[6]", "result": 4, "unit": "fold"}
    ]},
    {"substance": "TGM-D3 Y252A (domain or fragment)", "values": [
      {"measurement": "fold increase of KD against WT", "setting": "[6]", "result": "> 20", "unit": "fold"}
    ]},
    {"substance": "TGM-D12 (domain or fragment)", "values": [
      {"measurement": "stoichiometry N", "setting": "TβRI ectodomain [3]", "result": 1.2}
    ]},
    {"substance": "TGM-FL (natural protein)", "values": [
      {"measurement": "Kd", "setting": "TβRII ectodomain [8]", "result": 550, "unit": "nM"},
      {"measurement": "stoichiometry N", "setting": "TβRII ectodomain [8]", "result": 0.84},
      {"measurement": "Kd", "setting": "TβRI ectodomain [3]", "result": 52, "unit": "nM"},
      {"measurement": "stoichiometry N", "setting": "TβRI ectodomain [3]", "result": 0.96}
    ]},
    {"substance": "TβRII E142Q (from UniProt P37173 23-166) (receptor)", "values": [
      {"measurement": "fold increase of KD against WT", "setting": "[9]", "result": 17, "unit": "fold"}
    ]},
    {"substance": "TβRII I73A (from UniProt P37173 23-166) (receptor)", "values": [
      {"measurement": "fold increase of KD against WT", "setting": "[9]", "result": 7, "unit": "fold"}
    ]},
    {"substance": "TβRII I76A (from UniProt P37173 23-166) (receptor)", "values": [
      {"measurement": "fold increase of KD against WT", "setting": "[9]", "result": 26, "unit": "fold"}
    ]},
    {"substance": "TβRII S75L (from UniProt P37173 23-166) (receptor)", "values": [
      {"measurement": "fold increase of KD against WT", "setting": "[9]", "result": 200, "unit": "fold"}
    ]},
    {"substance": "full-length TGM (TGF-β mimic) (natural protein)", "values": [
      {"measurement": "stoichiometry N", "setting": "TβRI ectodomain [10]", "result": 1},
      {"measurement": "stoichiometry N", "setting": "TβRII ectodomain [4]", "result": 1},
      {"measurement": "Kd", "setting": "[11]", "result": 13, "unit": "nM"},
      {"measurement": "koff", "setting": "[11]", "result": 0.00078, "unit": "s⁻¹"},
      {"measurement": "kon", "setting": "[11]", "result": 59000, "unit": "M⁻¹ s⁻¹"},
      {"measurement": "Kd", "setting": "[5]", "result": 610, "unit": "nM"},
      {"measurement": "koff", "setting": "[5]", "result": 0.1, "unit": "s⁻¹"},
      {"measurement": "kon", "setting": "[5]", "result": "2e+07", "unit": "M⁻¹ s⁻¹"}
    ]},
    {"substance": "mmTGF-β27M, engineered TGF-β monomer (from UniProt P61812) (ligand)", "values": [
      {"measurement": "Kd", "setting": "TβRII ectodomain [12]", "result": 35, "unit": "nM"}
    ]}
  ]
}
